The supplement of paper PMC10567573

B1: PLAGL1 (parent)
chain: DPNKMAFGCEECGKKYNTMLGYKR
B2: ZNF207 (parent)
chain: FPSAGQAQAAVQGPVGTDFKPLNS

Variants of: B1
Test: protein stability index of a GFP-peptide fusion (GPS, HEK-293T) (PSI 1-6); higher = more stable
Conditions: c terminus: a fixed tail appended
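Note: lentivirally expressed fusions sorted by FACS into six bins by GFP to DsRed ratio, PSI derived from sequencing read proportions per bin multiplied by bin number.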

Protein stability index of substitutions, site by site:
Y22: Q 2.72, R 3.33, S 3.47, T 2.24, V 2.94, W 2.9
K23: A 1.98, C 2.21, D 2.81, E 2.15, F 2.03, G 2.21, H 1.98, I 2.95, L 2.73, M 1.58, N 2.42, P 2.31, R 2.35, S 2.17, T 2.34, V 1.79, W 1.35, Y 2.22
R24: A 3.02, C 2.58, D 3.65, E 4.57, F 2.42, G 2.74, H 3.66, I 2.05, K 4.02, L 2.05, M 2.78, N 3.27, P 2.87, Q 3.34, S 3.3, T 2.93, V 2.52, W 1.86, Y 2.61

Variants of: B2
Test: as above
Conditions: c terminus: a fixed tail appended

Protein stability index: each site, then its substitutions
F1: A 5.04, C 4.68, D 5.56, E 4.98, G 4.88, H 4.89, I 4.79, K 4.65, L 5.03, M 4.96, N 4.98, P 4.82, Q 5.11, R 5.18, S 5.11, T 5.3, V 4.92, W 4.75, Y 3.29
P2: A 3.46, C 2.7, D 4.73, E 4.71, F 3.33, G 4.14, H 2.26, I 2.89, K 4.27, L 3.41, M 3.93, N 4.11, Q 3.81, R 4.43, S 3.16, T 2.17, V 1.97, W 3.65, Y 3.47
S3: A 3.17, C 2.61, D 4.27, E 3.93, F 3.03, G 3.75, H 3.35, I 4.35, K 3.17, L 4.05, M 3.43, N 3.08, P 3.63, Q 3.81, R 2.83, T 4, V 3.61, W 3.44, Y 2.34
A4: C 2.52, D 4.68, E 4.58, F 3.82, G 2.98, H 3.71, I 4.41, K 3.71, L 4.25, M 3.8, N 4.08, P 4.16, Q 3.77, R 3.87, S 3.27, T 4.39, V 3.9, W 2.62, Y 3.51
G5: A 2.44, C 2.75, D 4.67, E 4.17, F 1.51, H 3.79, I 4.11, K 4.23, L 3.19, M 3.01, N 4.08, P 4.07, Q 4.19, R 3.78, S 3.3, T 4.11, V 3.96, W 1.66, Y 1.82
Q6: A 3.72, C 2.42, D 4.37, E 4.16, F 2.5, G 3.65, H 3.58, I 2.72, K 2.76, L 2.81, M 2.8, N 3.62, P 4.23, R 3.01, S 3.65, T 3.96, V 3.41, W 1.47, Y 1.94
A7: C 2.47, D 3.98, E 3.94, F 2.17, G 3.58, H 3.55, I 3.15, K 3.49, L 2.27, M 2.93
